Paper PMC5997747

Molecular target: FGFR1β (IIIc)/Fc chimera
Experiment: SPR; BIAcore 2000, 25 °C, 10 mM PBS pH 7.4; about 1000 RU FGFR1β (IIIc)/Fc and 750 RU human IgG1 Fc (control cell) immobilised on a CM4 chip by amine coupling; NCAM2 domains injected at 20-30 μl/min; steady state affinity fit, Kd roughly estimated

Kd | Molecule
400 nM | NCAM2 FnIII1-2 domains expressed from P. pastoris (domain or fragment)
4400 nM | recombinant human NCAM2 FnIII2 domain (from UniProt O15394 592-693) (domain or fragment)
290 nM | recombinant human NCAM2 FnIII1 domain (domain or fragment) SPYGVKIIELSQTTAKVSFNKPDSHGGVPIHHYQVDVKEVASEIWKIVRSHGVQTMVVLNNLEPNTTYEIRVAAVNGKGQGDYSKIEIFQTLPV
130 nM | recombinant human NCAM2 FnIII1-2 double domain (expressed in E. coli) (domain or fragment) SPYGVKIIELSQTTAKVSFNKPDSHGGVPIHHYQVDVKEVASEIWKIVRSHGVQTMVVLNNLEPNTTYEIRVAAVNGKGQGDYSKIEIFQTLPVREPSPPSIHGQPSSGKSFKLSITKQDDGGAPILEYIVKYRSKDKEDQWLEKKVQGNKDHIILEHLQWTMGYEVQITAANRLGYSEPTVYEFSMPPKPNIIKD
